Test results from the supplement of paper PMC10065799, “High-throughput profiling of sequence recognition by tyrosine kinases and SH2 domains using bacterial peptide display” (eLife, 2023).

Tests used:
c-Src = assay: phosphorylation enrichment, bacterial display (enrichment ratio); higher = better substrate or ligand; peptides without Tyr show the background
Fes = Fes (UniProt P07332); assay: as above
EPHB2 = EPHB2 (UniProt P29323); assay: as above
AncSZ = assay: as above
FGFR1 = FGFR1 (UniProt P11362); assay: as above
MERTK = MERTK (UniProt Q12866); assay: as above
Jak2 = Jak2 (UniProt O60674); assay: as above
EPHB1 = EPHB1 (UniProt P54762); assay: as above
FGFR3 = FGFR3 (UniProt P22607); assay: as above
Fer (mouse) = assay: as above
c-Abl (mouse) = assay: as above
Hck = Hck (UniProt P08631); assay: as above
Fyn = Fyn (UniProt P06241); assay: as above
Grb2 SH2 = Grb2 SH2 (UniProt P62993); assay: SH2 binding enrichment of the phosphorylated peptide, bacterial display (enrichment ratio); higher = better substrate or ligand; peptides without Tyr show the background
SHP2-C SH2 = assay: as above
c-Src SH2 = assay: as above
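For SH2 binding enrichment of the phosphorylated peptide, bacterial display in this document: peptide library displayed on the E. coli surface as eCPX fusions, selected cells deep-sequenced, score is each peptide's frequency after selection divided by its frequency in the input.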
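For phosphorylation enrichment, bacterial display in this document: 11-residue human phosphosite peptides and single-mutation variants displayed on the E. coli surface, counted by deep sequencing, each peptide's frequency after selection divided by its frequency in the unselected input library; frequency after pTyr selection over input frequency; kinase dosed for 20-30% of maximal phosphorylation in three min.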

Chain of MERTK (Q12866 whole entry, looked up): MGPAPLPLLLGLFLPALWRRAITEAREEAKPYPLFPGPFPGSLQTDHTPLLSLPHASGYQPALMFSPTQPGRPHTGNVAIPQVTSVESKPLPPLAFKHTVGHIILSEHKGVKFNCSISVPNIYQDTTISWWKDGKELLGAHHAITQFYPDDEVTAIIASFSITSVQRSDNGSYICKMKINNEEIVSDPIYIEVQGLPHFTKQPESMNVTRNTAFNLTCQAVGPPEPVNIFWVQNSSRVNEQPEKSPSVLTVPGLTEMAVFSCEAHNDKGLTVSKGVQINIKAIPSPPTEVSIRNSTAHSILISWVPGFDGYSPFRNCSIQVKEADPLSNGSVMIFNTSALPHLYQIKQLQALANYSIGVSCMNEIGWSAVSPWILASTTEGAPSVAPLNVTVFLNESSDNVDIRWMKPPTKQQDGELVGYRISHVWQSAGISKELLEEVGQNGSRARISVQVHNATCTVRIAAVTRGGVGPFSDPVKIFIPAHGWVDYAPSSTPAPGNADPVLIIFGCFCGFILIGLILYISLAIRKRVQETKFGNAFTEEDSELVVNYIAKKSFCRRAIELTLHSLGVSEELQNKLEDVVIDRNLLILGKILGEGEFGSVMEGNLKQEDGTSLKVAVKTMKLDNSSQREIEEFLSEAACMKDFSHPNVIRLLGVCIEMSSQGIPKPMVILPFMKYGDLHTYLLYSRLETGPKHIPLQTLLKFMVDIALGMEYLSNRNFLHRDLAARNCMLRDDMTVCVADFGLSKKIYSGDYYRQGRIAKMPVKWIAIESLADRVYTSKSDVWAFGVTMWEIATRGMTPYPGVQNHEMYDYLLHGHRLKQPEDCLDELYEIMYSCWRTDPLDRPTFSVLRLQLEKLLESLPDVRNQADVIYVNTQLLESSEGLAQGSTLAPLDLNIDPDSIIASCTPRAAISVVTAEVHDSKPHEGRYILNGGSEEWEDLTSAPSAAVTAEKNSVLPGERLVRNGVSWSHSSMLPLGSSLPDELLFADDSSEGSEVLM
Chain of Hck (P08631 whole entry, looked up): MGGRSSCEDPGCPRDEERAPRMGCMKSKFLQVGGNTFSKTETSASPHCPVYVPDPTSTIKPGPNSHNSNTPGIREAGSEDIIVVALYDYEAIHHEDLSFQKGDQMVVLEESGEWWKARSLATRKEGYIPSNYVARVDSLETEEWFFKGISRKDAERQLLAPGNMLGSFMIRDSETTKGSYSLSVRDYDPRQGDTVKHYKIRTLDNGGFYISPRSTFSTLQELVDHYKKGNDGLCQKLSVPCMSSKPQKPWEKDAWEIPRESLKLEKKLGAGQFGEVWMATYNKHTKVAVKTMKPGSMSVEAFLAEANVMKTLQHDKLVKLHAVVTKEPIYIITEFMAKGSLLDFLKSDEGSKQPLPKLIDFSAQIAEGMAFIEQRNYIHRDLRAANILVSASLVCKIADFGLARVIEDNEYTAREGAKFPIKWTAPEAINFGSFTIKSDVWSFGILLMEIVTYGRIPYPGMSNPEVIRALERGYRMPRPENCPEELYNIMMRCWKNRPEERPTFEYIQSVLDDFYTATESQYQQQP
Chain of Fyn (P06241 whole entry, looked up): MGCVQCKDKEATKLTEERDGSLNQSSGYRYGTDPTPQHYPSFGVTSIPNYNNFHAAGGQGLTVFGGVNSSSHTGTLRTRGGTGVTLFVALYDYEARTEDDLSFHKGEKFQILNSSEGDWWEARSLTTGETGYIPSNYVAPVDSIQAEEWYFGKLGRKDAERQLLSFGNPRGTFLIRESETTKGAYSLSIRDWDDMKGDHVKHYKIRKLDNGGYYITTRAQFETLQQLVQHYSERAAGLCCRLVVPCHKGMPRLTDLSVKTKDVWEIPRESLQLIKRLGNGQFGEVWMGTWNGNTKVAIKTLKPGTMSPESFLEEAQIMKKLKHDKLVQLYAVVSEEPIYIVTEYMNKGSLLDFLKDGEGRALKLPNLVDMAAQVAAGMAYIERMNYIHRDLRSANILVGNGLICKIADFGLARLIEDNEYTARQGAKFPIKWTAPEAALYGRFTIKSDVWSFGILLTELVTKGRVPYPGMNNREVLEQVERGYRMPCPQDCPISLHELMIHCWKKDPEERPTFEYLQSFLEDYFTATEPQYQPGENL
Chain of Jak2 (O60674 whole entry, looked up): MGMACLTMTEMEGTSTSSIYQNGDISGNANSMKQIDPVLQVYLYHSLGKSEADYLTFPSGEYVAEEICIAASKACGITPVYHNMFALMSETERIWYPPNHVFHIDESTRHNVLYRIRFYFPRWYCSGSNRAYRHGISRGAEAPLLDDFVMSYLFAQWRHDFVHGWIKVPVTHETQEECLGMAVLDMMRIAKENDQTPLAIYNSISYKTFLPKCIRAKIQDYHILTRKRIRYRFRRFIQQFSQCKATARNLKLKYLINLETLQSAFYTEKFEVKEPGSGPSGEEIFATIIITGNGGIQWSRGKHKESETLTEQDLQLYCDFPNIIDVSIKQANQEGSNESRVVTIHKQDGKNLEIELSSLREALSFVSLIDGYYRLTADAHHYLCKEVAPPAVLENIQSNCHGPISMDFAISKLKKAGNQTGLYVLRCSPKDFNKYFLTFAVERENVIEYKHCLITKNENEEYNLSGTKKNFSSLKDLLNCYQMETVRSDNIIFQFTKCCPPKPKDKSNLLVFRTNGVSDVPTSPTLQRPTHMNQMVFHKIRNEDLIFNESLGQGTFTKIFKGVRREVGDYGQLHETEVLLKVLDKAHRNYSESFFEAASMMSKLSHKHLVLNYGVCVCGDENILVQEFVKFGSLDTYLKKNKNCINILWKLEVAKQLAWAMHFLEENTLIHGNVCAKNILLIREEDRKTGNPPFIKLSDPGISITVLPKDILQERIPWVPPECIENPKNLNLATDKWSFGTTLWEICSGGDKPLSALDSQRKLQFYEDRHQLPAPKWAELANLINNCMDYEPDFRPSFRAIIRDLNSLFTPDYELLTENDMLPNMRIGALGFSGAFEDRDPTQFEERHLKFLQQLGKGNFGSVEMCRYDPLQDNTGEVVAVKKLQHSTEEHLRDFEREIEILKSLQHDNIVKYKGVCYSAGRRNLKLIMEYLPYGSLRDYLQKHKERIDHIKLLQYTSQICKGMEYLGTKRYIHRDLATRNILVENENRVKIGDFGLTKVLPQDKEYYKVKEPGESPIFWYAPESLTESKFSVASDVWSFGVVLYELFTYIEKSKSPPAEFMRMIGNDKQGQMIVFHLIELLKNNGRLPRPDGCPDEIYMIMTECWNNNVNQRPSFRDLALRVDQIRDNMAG
Chain of FGFR1 (P11362 whole entry, looked up): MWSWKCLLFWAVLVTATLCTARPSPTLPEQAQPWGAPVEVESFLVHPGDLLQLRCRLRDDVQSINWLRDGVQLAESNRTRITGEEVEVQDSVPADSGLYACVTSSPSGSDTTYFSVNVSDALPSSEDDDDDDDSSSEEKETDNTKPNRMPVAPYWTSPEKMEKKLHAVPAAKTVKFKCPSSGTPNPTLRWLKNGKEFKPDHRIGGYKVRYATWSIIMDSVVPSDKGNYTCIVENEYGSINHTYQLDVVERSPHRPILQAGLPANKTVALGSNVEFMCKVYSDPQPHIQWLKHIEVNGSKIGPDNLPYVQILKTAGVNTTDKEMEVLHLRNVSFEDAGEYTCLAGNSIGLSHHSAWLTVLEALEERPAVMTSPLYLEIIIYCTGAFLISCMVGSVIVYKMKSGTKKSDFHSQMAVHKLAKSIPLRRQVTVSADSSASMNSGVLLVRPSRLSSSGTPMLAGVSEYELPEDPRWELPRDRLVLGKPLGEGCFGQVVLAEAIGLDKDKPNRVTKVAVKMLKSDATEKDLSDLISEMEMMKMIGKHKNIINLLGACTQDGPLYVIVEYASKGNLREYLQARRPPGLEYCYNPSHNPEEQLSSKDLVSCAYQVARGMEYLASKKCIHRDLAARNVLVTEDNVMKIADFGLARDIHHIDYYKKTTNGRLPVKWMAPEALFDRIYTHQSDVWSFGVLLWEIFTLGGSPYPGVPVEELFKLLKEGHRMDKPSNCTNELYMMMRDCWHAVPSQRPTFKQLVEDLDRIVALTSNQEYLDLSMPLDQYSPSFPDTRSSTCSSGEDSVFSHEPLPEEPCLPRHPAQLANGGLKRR
Chain of Fes (P07332 whole entry, looked up): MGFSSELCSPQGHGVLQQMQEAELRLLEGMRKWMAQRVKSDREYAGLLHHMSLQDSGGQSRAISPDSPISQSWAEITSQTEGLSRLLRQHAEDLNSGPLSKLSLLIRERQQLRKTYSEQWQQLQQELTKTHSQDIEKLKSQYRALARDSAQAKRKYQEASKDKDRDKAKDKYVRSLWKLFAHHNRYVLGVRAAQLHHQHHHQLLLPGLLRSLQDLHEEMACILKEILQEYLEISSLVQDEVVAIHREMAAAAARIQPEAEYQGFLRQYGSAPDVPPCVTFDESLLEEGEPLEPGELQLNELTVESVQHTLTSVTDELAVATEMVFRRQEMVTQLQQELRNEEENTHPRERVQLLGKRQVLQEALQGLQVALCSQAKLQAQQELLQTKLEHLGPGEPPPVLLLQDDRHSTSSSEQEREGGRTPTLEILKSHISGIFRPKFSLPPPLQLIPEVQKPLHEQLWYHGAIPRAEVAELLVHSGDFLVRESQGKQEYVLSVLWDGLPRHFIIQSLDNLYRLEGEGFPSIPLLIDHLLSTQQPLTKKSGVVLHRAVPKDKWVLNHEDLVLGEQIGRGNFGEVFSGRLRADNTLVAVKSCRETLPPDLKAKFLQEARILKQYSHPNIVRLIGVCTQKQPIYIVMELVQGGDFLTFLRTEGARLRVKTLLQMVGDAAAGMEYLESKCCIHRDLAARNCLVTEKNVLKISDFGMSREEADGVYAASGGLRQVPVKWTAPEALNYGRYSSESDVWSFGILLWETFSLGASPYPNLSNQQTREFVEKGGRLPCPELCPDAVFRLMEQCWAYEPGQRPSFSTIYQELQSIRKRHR

Row | Sequence | SH2 binding enrichment (Grb2 SH2) | SH2 binding enrichment (SHP2-C SH2) | SH2 binding enrichment (c-Src SH2) | phosphorylation enrichment (c-Src) | phosphorylation enrichment (Fes) | phosphorylation enrichment (EPHB2) | phosphorylation enrichment (AncSZ) | phosphorylation enrichment (FGFR1) | phosphorylation enrichment (MERTK) | phosphorylation enrichment (Jak2) | phosphorylation enrichment (EPHB1) | phosphorylation enrichment (FGFR3) | phosphorylation enrichment (Fer (mouse)) | phosphorylation enrichment (c-Abl (mouse)) | phosphorylation enrichment (Hck) | phosphorylation enrichment (Fyn)
1 | TSPKSCPSQKH [CAP2_Y316_Y316C] | 0.971 | 0.967 | 0.759 | 0.415 | 0.619 | 0.361 | 0.546 | 0.432 | 0.476 | 0.73 | 0.385 | 0.521 | 0.385 | 0.688 | 0.472 | 0.461
2 | GEAEQYVGGGG [FAT4_Y4980] | 1.16 | 0.584 | 0.464 | 0.327 | 0.87 | 0.414 | 0.842 | 0.543 | 0.371 | 0.746 | 0.394 | 0.687 | 0.448 | 0.584 | 0.44 | 0.465
3 | FARNCYVAGQF [G6PD_Y107_S106C_YF] | 0.742 | 0.383 | 0.437 | 0.507 | 0.938 | 0.487 | 0.983 | 0.461 | 0.363 | 0.743 | 0.505 | 0.553 | 0.417 | 0.714 | 0.409 | 0.387
4 | LAEMNYVHRDL [EPHB1_Y740] | 0.882 | 0.578 | 0.403 | 0.432 | 0.709 | 0.632 | 1.32 | 0.412 | 0.659 | 1.4 | 0.441 | 0.503 | 0.32 | 1.15 | 0.362 | 0.529
5 | EQSGSYIWVLA [DLG1_Y895_P899L] | 0.65 | 0.394 | 0.383 | 0.476 | 1.32 | 0.641 | 1.27 | 1.11 | 0.504 | 1.14 | 0.634 | 0.917 | 0.526 | 0.705 | 0.517 | 0.482
6 | TDLAYYLVREG [ASL_Y376_K380E] | 0.751 | 2.07 | 1.51 | 1.67 | 0.905 | 0.706 | 1.54 | 9.61 | 1.34 | 3.04 | 0.578 | 7.06 | 0.466 | 0.579 | 0.955 | 0.734
7 | SHSMRYFDTAV [HLA-C_Y31] | 0.716 | 0.467 | 0.51 | 0.367 | 0.586 | 0.329 | 0.57 | 0.471 | 0.497 | 0.492 | 0.42 | 0.521 | 0.384 | 0.436 | 0.424 | 0.416
8 | STSFDYCRVPM [BST2_Y8_YF] | 0.675 | 0.571 | 0.558 | 0.957 | 1.32 | 5.96 | 2.98 | 5.41 | 0.903 | 2.03 | 9.03 | 3.97 | 0.827 | 0.932 | 1.57 | 0.828
9 | AVLSLYASGST [ACTG2_Y144_R148S] | 1.06 | 0.907 | 0.611 | 0.541 | 1.26 | 0.722 | 1.08 | 0.572 | 0.414 | 1.09 | 0.729 | 0.723 | 0.558 | 0.829 | 0.638 | 0.476

Now from value to sequence, other results behind:

Row | SH2 binding enrichment (Grb2 SH2) | SH2 binding enrichment (SHP2-C SH2) | SH2 binding enrichment (c-Src SH2) | Sequence | phosphorylation enrichment (c-Src) | phosphorylation enrichment (Fes) | phosphorylation enrichment (EPHB2) | phosphorylation enrichment (AncSZ) | phosphorylation enrichment (FGFR1) | phosphorylation enrichment (MERTK) | phosphorylation enrichment (Jak2) | phosphorylation enrichment (EPHB1) | phosphorylation enrichment (FGFR3) | phosphorylation enrichment (Fer (mouse)) | phosphorylation enrichment (c-Abl (mouse)) | phosphorylation enrichment (Hck) | phosphorylation enrichment (Fyn)
10 | 0.772 | 0.781 | 0.489 | PINLFYLMDLS [ITGB2_Y131_D128N_YF] | 1.11 | 1.98 | 0.886 | 1.46 | 0.772 | 0.763 | 1.92 | 0.752 | 1.11 | 0.695 | 2.11 | 0.718 | 0.653
11 | 2.52 | 0.591 | 1.85 | YNNYGYGNDGF [HNRNPH3_Y161] | 0.505 | 0.924 | 6.45 | 0.789 | 0.766 | 0.759 | 0.673 | 3.61 | 0.766 | 0.566 | 0.547 | 0.455 | 0.577
12 | 0.831 | 0.698 | 0.673 | NLVSEYQQYQD [TUBB3_Y422_D417N] | 0.541 | 1.05 | 0.693 | 1.37 | 0.531 | 0.44 | 0.968 | 0.582 | 0.726 | 0.508 | 0.679 | 0.606 | 0.592
13 | 0.803 | 0.694 | 0.455 | AKQVGCENAGT [PC_Y304_Y304C] | 0.428 | 0.83 | 0.455 | 0.749 | 0.391 | 0.442 | 0.706 | 0.407 | 0.484 | 0.42 | 0.638 | 0.408 | 0.487
14 | 0.62 | 0.549 | 0.4 | SAPPSHEETVA [LITAF_Y23_Y23H] | 0.404 | 0.597 | 0.393 | 0.453 | 0.374 | 0.338 | 0.817 | 0.435 | 0.84 | 0.524 | 0.489 | 0.342 | 0.481
15 | 0.798 | 0.709 | 0.625 | RLEPVYFVAPA [LAMC2_Y250_D247E] | 6.33 | 1.02 | 6.76 | 2.59 | 9.12 | 7.77 | 1.7 | 7.02 | 8.72 | 0.985 | 9.14 | 7.76 | 9.5
16 | 0.96 | 0.793 | 0.566 | LLKKVYLMLDN [STAT1_Y203_M202V] | 0.816 | 2.19 | 0.953 | 1.82 | 0.968 | 0.704 | 1.85 | 0.93 | 1.15 | 0.801 | 1.34 | 0.658 | 0.627
